Measured values taken from patent US20150111814A1.

Molecular target: HIV-1 BaL envelope protein spike (Env) on virions (HIV-1 BaL strain)
Assay: cell-based or functional assay

“MVN-DAVEI8 (microvirin-linker-MPER fusion)” was tested, and the EC50 of virolysis (% p24 release) was 0.78 µM.
